Source: the supplement of paper PMC5998384

Legend:
HeLa Kyoto [1] = assay: solubility in G1/S (NP-40 vs SDS abundance) (log2 ratio); higher = more soluble; conditions: cell cycle stage: G1/S
HeLa Kyoto [2] = assay: solubility change mitosis vs G1/S (difference of NP-40 vs SDS log2 ratios) (log2 ratio difference); higher = more soluble in mitosis
HeLa Kyoto [3] = assay: melting temperature (median over replicates), in situ; higher = more thermally stable
HeLa Kyoto [4] = assay: thermal stability score vs G1/S (z-score of summed log2 fold changes over temperatures); higher = more thermally stable than in G1/S
[5] = cell cycle stage: early G1 (4.5 h after nocodazole release)
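Wherever melting temperature (median over replicates), in situ is given: HeLa Kyoto cells synchronized by double thymidine or nocodazole block, proteins quantified by TMT10plex mass spectrometry, three independent biological replicates.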
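Wherever solubility change mitosis vs G1/S (difference of NP-40 vs SDS log2 ratios) is given: synchronized HeLa Kyoto cells (double thymidine block for G1/S, nocodazole release for mitosis), protein amounts in NP-40 versus SDS lysates quantified by mass spectrometry, three biological replicates.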
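Wherever solubility in G1/S (NP-40 vs SDS abundance) is given: HeLa Kyoto cells arrested at G1/S by double thymidine block, proteins quantified by TMT10plex mass spectrometry in mild NP-40 versus SDS extracts, three biological replicates.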
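Wherever thermal stability score vs G1/S (z-score of summed log2 fold changes over temperatures) is given: synchronized HeLa Kyoto cells, proteins quantified by TMT10plex mass spectrometry, three biological replicates, mitosis taken 0.5 h after nocodazole release, G1/S directly after double thymidine block.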

Substance | solubility in G1/S (log2) (HeLa Kyoto [1]) | solubility change mitosis (log2) (HeLa Kyoto [2]) | melting temperature (HeLa Kyoto [3]; cell cycle stage: G1/S) [°C] | melting temperature (HeLa Kyoto [3]; cell cycle stage: mitosis) [°C] | thermal stability score (HeLa Kyoto [4]; [5]) | thermal stability score (HeLa Kyoto [4]; cell cycle stage: mitosis)
MDGAAGPGDGPAREALQSLSQRLRVQEQEMELVKAALAEALRLLRLQVPPSSLQGSGTPAPPGDSLAAPPGLPPTCTPSLVSRGTQTETEVELKSSPGPPGLSNGPPAPQGASEEPSGTQSEGGGSSSSGAGSPGPPGILRPLQPPQRADTPRRNSSSSSSPSERPRQKLSRKAISSANLLVRSGSTESRGGKDPLSSPGGPGSRRSNYNLEGISVKMFLRGRPITMYIPSGIRSLEELPSGPPPETLSLDWVYGYRGRDSRSNLFVLRSGEVVYFIACVVVLYRPGGGPGGPGGGGQRHYRGHTDCVRCLAVHPDGVRVASGQTAGVDKDGKPLQPVVHIWDSETLLKLQEIGLGAFERGVGALAFSAADQGAFLCVVDDSNEHMLSVWDCSRGMKLAEIKSTNDSVLAVGFNPRDSSCIVTSGKSHVHFWNWSGGVGVPGNGTLTRKQGVFGKYKKPKFIPCFVFLPDGDILTGDSEGNILTWGRSPSDSKTPGRGGAKETYGIVAQAHAHEGSIFALCLRRDGTVLSGGGRDRRLVQWGPGLVALQEAEIPEHFGAVRAIAEGLGSELLVGTTKNALLRGDLAQGFSPVIQGHTDELWGLCTHPSQNRFLTCGHDRQLCLWDGESHALAWSIDLKETGLCADFHPSGAVVAVGLNTGRWLVLDTETREIVSDVIDGNEQLSVVRYSPDGLYLAIGSHDNVIYIYSVSSDGAKSSRFGRCMGHSSFITHLDWSKDGNFIMSNSGDYEILYWDVAGGCKQLKNRYESRDREWATYTCVLGFHVYGVWPDGSDGTDINSLCRSHNERVVAVADDFCKVHLFQYPCARAKAPSRMYGGHGSHVTSVRFTHDDSHLVSLGGKDASIFQWRVLGAGGAGPAPATPSRTPSLSPASSLDV [EML3] | 0.0248 | -0.215 | 51.6 | 52 | -0.497 | 0.0727
MAAAVSSVVRRVEELGDLAQAHIQQLSEAAGEDDHFLIRASAALEKLKLLCGEEKECSNPSNLLELYTQAILDMTYFEENKLVDEDFPEDSSSQKVKELISFLSEPEILVKENNMHPKHCNLLGDELLECLSWRRGALLYMYCHSLTKRREWLLRKSSLLKKYLLDGISYLLQMLNYRCPIQLNEGVSFQDLDTAKLLSAGIFSDIHLLAMMYSGEMCYWGSKYCADQQPENHEVDTSVSGAGCTTYKEPLDFREVGEKILKKYVSVCEGPLKEQEWNTTNAKQILNFFHHRCN [C5ORF51] | 0.302 | -0.0335 | 49.5 | 49.9 | 0.411 | 1.04
MAAPSPSGGGGSGGGSGSGTPGPVGSPAPGHPAVSSMQGKRKALKLNFANPPFKSTARFTLNPNPTGVQNPHIERLRTHSIESSGKLKISPEQHWDFTAEDLKDLGEIGRGAYGSVNKMVHKPSGQIMAVKRIRSTVDEKEQKQLLMDLDVVMRSSDCPYIVQFYGALFREGDCWICMELMSTSFDKFYKYVYSVLDDVIPEEILGKITLATVKALNHLKENLKIIHRDIKPSNILLDRSGNIKLCDFGISGQLVDSIAKTRDAGCRPYMAPERIDPSASRQGYDVRSDVWSLGITLYELATGRFPYPKWNSVFDQLTQVVKGDPPQLSNSEEREFSPSFINFVNLCLTKDESKRPKYKELLKHPFILMYEERAVEVACYVCKILDQMPATPSSPMYVD [MAP2K4] | 0.456 | 0.0151 | 50.7 | 51.5 | 0.539 | 0.431
MGTDSRAAKALLARARTLHLQTGNLLNWGRLRKKCPSTHSEELHDCIQKTLNEWSSQINPDLVREFPDVLECTVSHAVEKINPDEREEMKVSAKLFIVESNSSSSTRSAVDMACSVLGVAQLDSVIIASPPIEDGVNLSLEHLQPYWEELENLVQSKKIVAIGTSDLDKTQLEQLYQWAQVKPNSNQVNLASCCVMPPDLTAFAKQFDIQLLTHNDPKELLSEASFQEALQESIPDIQAHEWVPLWLLRYSVIVKSRGIIKSKGYILQAKRRGS [GCLM] | 0.229 | -0.0843 | 48.3 | 49 | 0.373 | 1.08
MAEAHQAVAFQFTVTPDGIDLRLSHEALRQIYLSGLHSWKKKFIRFKNGIITGVYPASPSSWLIVVVGVMTTMYAKIDPSLGIIAKINRTLETANCMSSQTKNVVSGVLFGTGLWVALIVTMRYSLKVLLSYHGWMFTEHGKMSRATKIWMGMVKIFSGRKPMLYSFQTSLPRLPVPAVKDTVNRYLQSVRPLMKEEDFKRMTALAQDFAVGLGPRLQWYLKLKSWWATNYVSDWWEEYIYLRGRGPLMVNSNYYAMDLLYILPTHIQAARAGNAIHAILLYRRKLDREEIKPIRLLGSTIPLCSAQWERMFNTSRIPGEETDTIQHMRDSKHIVVYHRGRYFKVWLYHDGRLLKPREMEQQMQRILDNTSEPQPGEARLAALTAGDRVPWARCRQAYFGRGKNKQSLDAVEKAAFFVTLDETEEGYRSEDPDTSMDSYAKSLLHGRCYDRWFDKSFTFVVFKNGKMGLNAEHSWADAPIVAHLWEYVMSIDSLQLGYAEDGHCKGDINPNIPYPTRLQWDIPGECQEVIETSLNTANLLANDVDFHSFPFVAFGKGIIKKCRTSPDAFVQLALQLAHYKDMGKFCLTYEASMTRLFREGRTETVRSCTTESCDFVRAMVDPAQTVEQRLKLFKLASEKHQHMYRLAMTGSGIDRHLFCLYVVSKYLAVESPFLKEVLSEPWRLSTSQTPQQQVELFDLENNPEYVSSGGGFGPVADDGYGVSYILVGENLINFHISSKFSCPETDSHRFGRHLKEAMTDIITLFGLSSNSKK [CPT1A] | -0.177 | -0.0899 | 50 | 50.1 | 5.3 | 4.57
FLNA | -0.000309 | -0.105 | 50.2 | 50.3 | -0.0595 | 2.86
MRRLGPFHPRVHWAAPPSLSSGLHRLLFLRGTRIPSSTTLSPPRHDSLSLDGGTVNPPRVREPTGREAFGPSPASSDWLPARWRNGRGGRPRARLCSGWTAAEEARRNPTLGGLLGRQRLLLRMGGGRLGAPMERHGRASATSVSSAGEQAAGDPEGRRQEPLRRRASSASVPAVGASAEGTRRDRLGSYSGPTSVSRQRVESLRKKRPLFPWFGLDIGGTLVKLVYFEPKDITAEEEEEEVESLKSIRKYLTSNVAYGSTGIRDVHLELKDLTLCGRKGNLHFIRFPTHDMPAFIQMGRDKNFSSLHTVFCATGGGAYKFEQDFLTIGDLQLCKLDELDCLIKGILYIDSVGFNGRSQCYYFENPADSEKCQKLPFDLKNPYPLLLVNIGSGVSILAVYSKDNYKRVTGTSLGGGTFFGLCCLLTGCTTFEEALEMASRGDSTKVDKLVRDIYGGDYERFGLPGWAVASSFGNMMSKEKREAVSKEDLARATLITITNNIGSIARMCALNENINQVVFVGNFLRINTIAMRLLAYALDYWSKGQLKALFSEHEGYFGAVGALLELLKIP [PANK2] | 0.04 | -0.196 | 53.1 | 55.1 | 0.0148 | 0.653
MSEGNAAGEPSTPGGPRPLLTGARGLIGRRPAPPLTPGRLPSIRSRDLTLGGVKKKTFTPNIISRKIKEEPKEEVTVKKEKRERDRDRQREGHGRGRGRPEVIQSHSIFEQGPAEMMKKKGNWDKTVDVSDMGPSHIINIKKEKRETDEETKQILRMLEKDDFLDDPGLRNDTRNMPVQLPLAHSGWLFKEENDEPDVKPWLAGPKEEDMEVDIPAVKVKEEPRDEEEEAKMKAPPKAARKTPGLPKDVSVAELLRELSLTKEEELLFLQLPDTLPGQPPTQDIKPIKTEVQGEDGQVVLIKQEKDREAKLAENACTLADLTEGQVGKLLIRKSGRVQLLLGKVTLDVTMGTACSFLQELVSVGLGDSRTGEMTVLGHVKHKLVCSPDFESLLDHKHR [POLR3D] | 0.144 | -0.118 |  | 48.8 | -0.688 | -1.1
NFIB | 0.238 | -0.032 | 54.2 | 53.9 | 1.24 | 1.07
MARPLVPSSQKALLLELKGLQEEPVEGFRVTLVDEGDLYNWEVAIFGPPNTYYEGGYFKARLKFPIDYPYSPPAFRFLTKMWHPNIYETGDVCISILHPPVDDPQSGELPSERWNPTQNVRTILLSVISLLNEPNTFSPANVDASVMYRKWKESKGKDREYTDIIRKQVLGTKVDAERDGVKVPTTLAEYCVKTKAPAPDEGSDLFYDDYYEDGEVEEEADSCFGDDEDDSGTEES [CDC34] | 0.3 | -0.0905 | 48.8 | 49.1 | 0.555 | 2.54
ATP7A | 0.00927 | -0.147 | 51.7 | 51.1 | -0.475 | -0.996
MKEEKEHRPKEKRVTLLTPAGATGSGGGTSGDSSKGEDKQDRNKEKKEALSKVVIRRLPPTLTKEQLQEHLQPMPEHDYFEFFSNDTSLYPHMYARAYINFKNQEDIILFRDRFDGYVFLDNKGQEYPAIVEFAPFQKAAKKKTKKRDTKVGTIDDDPEYRKFLESYATDNEKMTSTPETLLEEIEAKNRELIAKKTTPLLSFLKNKQRMREEKREERRRREIERKRQREEERRKWKEEEKRKRKDIEKLKKIDRIPERDKLKDEPKIKVHRFLLQAVNQKNLLKKPEKGDEKELDKREKAKKLDKENLSDERASGQSCTLPKRSDSELKDEKPKRPEDESGRDYREREREYERDQERILRERERLKRQEEERRRQKERYEKEKTFKRKEEEMKKEKDTLRDKGKKAESTESIGSSEKTEKKEEVVKRDRIRNKDRPAMQLYQPGARSRNRLCPPDDSTKSGDSAAERKQESGISHRKEGGEE [UPF3B] | -0.279 | 0.245 | 50.6 | 50.5 | 0.0687 | -0.398
MAAAVGVRGRYELPPCSGPGWLLSLSALLSVAARGAFATTHWVVTEDGKIQQQVDSPMNLKHPHDLVILMRQEATVNYLKELEKQLVAQKIHIEENEDRDTGLEQRHNKEDPDCIKAKVPLGDLDLYDGTYITLESKDISPEDYIDTESPVPPDPEQPDCTKILELPYSIHAFQHLRGVQERVNLSAPLLPKEDPIFTYLSKRLGRSIDDIGHLIHEGLQKNTSSWVLYNMASFYWRIKNEPYQVVECAMRALHFSSRHNKDIALVNLANVLHRAHFSADAAVVVHAALDDSDFFTSYYTLGNIYAMLGEYNHSVLCYDHALQARPGFEQAIKRKHAVLCQQKLEQKLEAQHRSLQRTLNELKEYQKQHDHYLRQQEILEKHKLIQEEQILRNIIHETQMAKEAQLGNHQICRLVNQQHSLHCQWDQPVRYHRGDIFENVDYVQFGEDSSTSSMMSVNFDVQSNQSDINDSVKSSPVAHSILWIWGRDSDAYRDKQHILWPKRADCTESYPRVPVGGELPTYFLPPENKGLRIHELSSDDYSTEEEAQTPDCSITDFRKSHTLSYLVKELEVRMDLKAKMPDDHARKILLSRINNYTIPEEEIGSFLFHAINKPNAPIWLILNEAGLYWRAVGNSTFAIACLQRALNLAPLQYQDVPLVNLANLLIHYGLHLDATKLLLQALAINSSEPLTFLSLGNAYLALKNISGALEAFRQALKLTTKCPECENSLKLIRCMQFYPFLYNITSSVCSGTVVEESNGSDEMENSDETKMSEEILALVDEFQQAWPLEGFGGALEMKGRRLDLQGIRVLKKGPQDGVARSSCYGDCRSEDDEATEWITFQVKRVKKPKGDHKKTPGKKVETGQIENGHRYQANLEITGPKVASPGPQGKKRDYQRLGWPSPDECLKLRWVELTAIVSTWLAVSSKNIDITEHIDFATPIQQPAMEPLCNGNLPTSMHTLDHLHGVSNRASLHYTGESQLTEVLQNLGKDQYPQQSLEQIGTRIAKVLEKNQTSWVLSSMAALYWRVKGQGKKAIDCLRQALHYAPHQMKDVPLISLANILHNAKLWNDAVIVATMAVEIAPHFAVNHFTLGNVYVAMEEFEKALVWYESTLKLQPEFVPAKNRIQTIQCHLMLKKGRRSP [TTC17] | 0.107 | 0.0442 | 54.8 | 56.8 | 2.32 | 2.24
